Measurements from US20140087995A1 (published 2014).
Numbered stars: 1 amine (or outer) side, 2 acyl side, 3 side chain; on linkers, the order of the positions; unused ones are H or OH. Bridge positions count the residues as written; N and C are the ends. Side chains are listed from the residue outwards. Ends that are not written are not given here. * marks the point of attachment. C20 diacid = O=C(O)CCCCCCCCCCCCCCCCCCC(=O)*; γGlu = O=C(O)[C@H](CCC(=O)[*:2])N[*:1]; AEEA = NCCOCCOCC(=O)O

T1: rat calcitonin receptor (rat, UniProt P32214 25-516)
T1 construct: whole, on cells; Used as membranes prepared from the transfected cells; also called rCTR; rat calcitonin (a) receptor
T1 sequence (looked up): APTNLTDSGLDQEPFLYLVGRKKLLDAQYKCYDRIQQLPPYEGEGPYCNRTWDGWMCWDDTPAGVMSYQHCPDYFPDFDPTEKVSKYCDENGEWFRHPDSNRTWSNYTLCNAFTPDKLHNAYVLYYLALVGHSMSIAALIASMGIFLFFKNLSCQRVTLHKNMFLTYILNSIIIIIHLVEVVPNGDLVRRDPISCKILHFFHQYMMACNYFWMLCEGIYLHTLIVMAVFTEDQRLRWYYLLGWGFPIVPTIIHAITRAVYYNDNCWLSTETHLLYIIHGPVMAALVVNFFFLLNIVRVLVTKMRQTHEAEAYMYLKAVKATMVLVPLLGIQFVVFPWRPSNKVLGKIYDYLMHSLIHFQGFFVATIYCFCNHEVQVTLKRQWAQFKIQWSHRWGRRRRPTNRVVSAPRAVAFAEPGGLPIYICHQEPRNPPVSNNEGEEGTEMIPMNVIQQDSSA

T2: human calcitonin receptor (human, UniProt P30988 25-474)
T2 construct: whole, on cells; Used as membranes prepared from the transfected cells (Assay VII); also called hCTR; hCT
T2 sequence (looked up): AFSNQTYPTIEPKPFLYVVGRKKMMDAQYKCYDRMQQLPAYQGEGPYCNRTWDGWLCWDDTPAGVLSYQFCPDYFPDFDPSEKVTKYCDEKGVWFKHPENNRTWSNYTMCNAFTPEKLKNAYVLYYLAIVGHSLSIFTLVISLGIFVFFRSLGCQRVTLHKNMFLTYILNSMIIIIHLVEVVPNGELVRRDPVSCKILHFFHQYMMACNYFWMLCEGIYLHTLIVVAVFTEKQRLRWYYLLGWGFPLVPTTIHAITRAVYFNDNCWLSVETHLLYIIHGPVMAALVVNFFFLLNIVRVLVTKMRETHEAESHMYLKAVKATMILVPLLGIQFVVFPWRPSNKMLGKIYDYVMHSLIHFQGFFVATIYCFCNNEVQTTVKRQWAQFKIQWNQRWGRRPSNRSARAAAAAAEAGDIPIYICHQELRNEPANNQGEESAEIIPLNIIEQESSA

T3: rat amylin receptor (rat calcitonin receptor + rat RAMP 3) (rat, UniProt P32214 25-516; Q9JJ73 23-147)
T3 construct: whole, on cells; Used as membranes prepared from the transfected cells; also called rAmylin-R; rat amylin 3(a) receptor
T3 sequence (looked up) 1: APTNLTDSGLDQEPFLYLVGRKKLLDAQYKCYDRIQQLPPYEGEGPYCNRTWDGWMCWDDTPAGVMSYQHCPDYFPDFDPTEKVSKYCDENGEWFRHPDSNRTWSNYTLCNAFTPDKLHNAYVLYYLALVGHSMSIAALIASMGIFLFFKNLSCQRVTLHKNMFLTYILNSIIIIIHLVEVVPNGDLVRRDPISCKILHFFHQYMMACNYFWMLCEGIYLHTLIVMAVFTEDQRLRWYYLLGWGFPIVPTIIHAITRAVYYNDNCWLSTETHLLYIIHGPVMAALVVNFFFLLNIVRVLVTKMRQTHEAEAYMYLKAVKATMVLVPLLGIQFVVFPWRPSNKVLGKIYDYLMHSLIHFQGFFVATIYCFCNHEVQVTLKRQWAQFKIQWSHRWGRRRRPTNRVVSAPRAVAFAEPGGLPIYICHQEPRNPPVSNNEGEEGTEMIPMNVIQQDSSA
T3 sequence (looked up) 2: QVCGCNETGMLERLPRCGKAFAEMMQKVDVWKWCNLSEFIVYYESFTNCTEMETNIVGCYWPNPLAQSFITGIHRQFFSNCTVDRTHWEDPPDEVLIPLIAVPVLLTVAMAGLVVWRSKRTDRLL


How the values were obtained:
rat calcitonin receptor [1] = molecular target: T1, rat calcitonin receptor; assay: SPA competition with 125I-calcitonin, membranes of BHK cells with rat calcitonin receptor (Assay VIII)
[2] = molecular target: T2, human calcitonin receptor; assay: ratio IC50 human calcitonin receptor / IC50 human amylin receptor (Assays VII and V)
Outline: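 IC₅₀ values were derived by one-site competition analysis of SPA counts. Cell membranes (35 ng/μL) with SPA beads were incubated with test compounds for 120 min at 25° C in Hepes buffer, pH 7.4, containing CaCl2, MgCl₂, OA and Tween20.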

[3] = molecular target: T3, rat amylin receptor (rat calcitonin …); assay: SPA competition with 125I-rat amylin, membranes of BHK cells with rat calcitonin receptor + rat RAMP3 (Assay VI)
rat calcitonin receptor [4] = molecular target: T1, rat calcitonin receptor; assay: ratio IC50 rat calcitonin receptor / IC50 rat amylin receptor (Assays VIII and VI)

| Binder | IC50 (rat calcitonin receptor [1]) [nM] | Ratio hCT/hAmylin binding [2] | IC50 [3] [nM] | Ratio rCT/rAmylin binding (rat calcitonin receptor [4]) |
| --- | --- | --- | --- | --- |
| K([AEEA-γGlu-C20 diacid])CNTATCATQRLANFLRHSSPNFGAIPSSTNVGSETY-NH2 (disulfide 2-7; N-terminus assumed; SMILES CC[C@H](C)[C@H](NC(=O)[C@H](C)NC(=O)CNC(=O)[C@H](Cc1ccccc1)NC(=O)[C@H](CC(N)=O)NC(=O)[C@@H]1CCCN1C(=O)[C@H](CO)NC(=O)[C@H](CO)NC(=O)[C@H](Cc1c[nH]cn1)NC(=O)[C@H](CCCNC(=N)N)NC(=O)[C@H](CC(C)C)NC(=O)[C@H](Cc1ccccc1)NC(=O)[C@H](CC(N)=O)NC(=O)[C@H](C)NC(=O)[C@H](CC(C)C)NC(=O)[C@H](CCCNC(=N)N)NC(=O)[C@H](CCC(N)=O)NC(=O)[C@@H](NC(=O)[C@H](C)NC(=O)[C@@H]1CSSC[C@H](NC(=O)[C@@H](N)CCCCNC(=O)COCCOCCNC(=O)CC[C@H](NC(=O)CCCCCCCCCCCCCCCCCCC(=O)O)C(=O)O)C(=O)N[C@@H](CC(N)=O)C(=O)N[C@@H]([C@@H](C)O)C(=O)N[C@@H](C)C(=O)N[C@@H]([C@@H](C)O)C(=O)N1)[C@@H](C)O)C(=O)N1CCC[C@H]1C(=O)N[C@@H](CO)C(=O)N[C@@H](CO)C(=O)N[C@H](C(=O)N[C@@H](CC(N)=O)C(=O)N[C@H](C(=O)NCC(=O)N[C@@H](CO)C(=O)N[C@@H](CCC(=O)O)C(=O)N[C@H](C(=O)N[C@@H](Cc1ccc(O)cc1)C(N)=O)[C@@H](C)O)C(C)C)[C@@H](C)O, Derivative of human amylin; also called compound 26) | 152 | 47.5 | 0.491 | 309 |
| K([AEEA-AEEA-γGlu-C20 diacid])CNTATCATQRLANFLRHSSPNFGAIPSSTNVGSETY-NH2 (disulfide 2-7; N-terminus assumed; SMILES CC[C@H](C)[C@H](NC(=O)[C@H](C)NC(=O)CNC(=O)[C@H](Cc1ccccc1)NC(=O)[C@H](CC(N)=O)NC(=O)[C@@H]1CCCN1C(=O)[C@H](CO)NC(=O)[C@H](CO)NC(=O)[C@H](Cc1c[nH]cn1)NC(=O)[C@H](CCCNC(=N)N)NC(=O)[C@H](CC(C)C)NC(=O)[C@H](Cc1ccccc1)NC(=O)[C@H](CC(N)=O)NC(=O)[C@H](C)NC(=O)[C@H](CC(C)C)NC(=O)[C@H](CCCNC(=N)N)NC(=O)[C@H](CCC(N)=O)NC(=O)[C@@H](NC(=O)[C@H](C)NC(=O)[C@@H]1CSSC[C@H](NC(=O)[C@@H](N)CCCCNC(=O)COCCOCCNC(=O)COCCOCCNC(=O)CC[C@H](NC(=O)CCCCCCCCCCCCCCCCCCC(=O)O)C(=O)O)C(=O)N[C@@H](CC(N)=O)C(=O)N[C@@H]([C@@H](C)O)C(=O)N[C@@H](C)C(=O)N[C@@H]([C@@H](C)O)C(=O)N1)[C@@H](C)O)C(=O)N1CCC[C@H]1C(=O)N[C@@H](CO)C(=O)N[C@@H](CO)C(=O)N[C@H](C(=O)N[C@@H](CC(N)=O)C(=O)N[C@H](C(=O)NCC(=O)N[C@@H](CO)C(=O)N[C@@H](CCC(=O)O)C(=O)N[C@H](C(=O)N[C@@H](Cc1ccc(O)cc1)C(N)=O)[C@@H](C)O)C(C)C)[C@@H](C)O, Derivative of human amylin; also called compound 25) | 131 | 56.5 | 3.48 | 37.7 |

The next binders have a lower IC50 (rat calcitonin receptor [1]) than those just listed; values first:

| IC50 (rat calcitonin receptor [1]) [nM] | Ratio hCT/hAmylin binding [2] | IC50 [3] [nM] | Ratio rCT/rAmylin binding (rat calcitonin receptor [4]) | Binder |
| --- | --- | --- | --- | --- |
| 90.2 | 41.3 | 0.614 | 147 | K([γGlu-C20 diacid])CNTATCATQRLANFLRHSSPNFGAIPSSTNVGSETY-NH2 (disulfide 2-7; N-terminus assumed; SMILES CC[C@H](C)[C@H](NC(=O)[C@H](C)NC(=O)CNC(=O)[C@H](Cc1ccccc1)NC(=O)[C@H](CC(N)=O)NC(=O)[C@@H]1CCCN1C(=O)[C@H](CO)NC(=O)[C@H](CO)NC(=O)[C@H](Cc1c[nH]cn1)NC(=O)[C@H](CCCNC(=N)N)NC(=O)[C@H](CC(C)C)NC(=O)[C@H](Cc1ccccc1)NC(=O)[C@H](CC(N)=O)NC(=O)[C@H](C)NC(=O)[C@H](CC(C)C)NC(=O)[C@H](CCCNC(=N)N)NC(=O)[C@H](CCC(N)=O)NC(=O)[C@@H](NC(=O)[C@H](C)NC(=O)[C@@H]1CSSC[C@H](NC(=O)[C@@H](N)CCCCNC(=O)CC[C@H](NC(=O)CCCCCCCCCCCCCCCCCCC(=O)O)C(=O)O)C(=O)N[C@@H](CC(N)=O)C(=O)N[C@@H]([C@@H](C)O)C(=O)N[C@@H](C)C(=O)N[C@@H]([C@@H](C)O)C(=O)N1)[C@@H](C)O)C(=O)N1CCC[C@H]1C(=O)N[C@@H](CO)C(=O)N[C@@H](CO)C(=O)N[C@H](C(=O)N[C@@H](CC(N)=O)C(=O)N[C@H](C(=O)NCC(=O)N[C@@H](CO)C(=O)N[C@@H](CCC(=O)O)C(=O)N[C@H](C(=O)N[C@@H](Cc1ccc(O)cc1)C(N)=O)[C@@H](C)O)C(C)C)[C@@H](C)O, Derivative of human amylin; also called compound 27) [N^ε1-[(4S)-4-carboxy-4-(19-carboxynonadecanoylamino)butanoyl]-[Arg17,Pro21,Pro27,Glu35]-h-amylin] |
| 74.1 | 49.9 | 1.37 | 54 | K([AEEA-γGlu-C20 diacid])CNTATCATQRLANFLRHSSPNFGAIPSSTNVGSNTY-NH2 (disulfide 2-7; N-terminus assumed; SMILES CC[C@H](C)[C@H](NC(=O)[C@H](C)NC(=O)CNC(=O)[C@H](Cc1ccccc1)NC(=O)[C@H](CC(N)=O)NC(=O)[C@@H]1CCCN1C(=O)[C@H](CO)NC(=O)[C@H](CO)NC(=O)[C@H](Cc1c[nH]cn1)NC(=O)[C@H](CCCNC(=N)N)NC(=O)[C@H](CC(C)C)NC(=O)[C@H](Cc1ccccc1)NC(=O)[C@H](CC(N)=O)NC(=O)[C@H](C)NC(=O)[C@H](CC(C)C)NC(=O)[C@H](CCCNC(=N)N)NC(=O)[C@H](CCC(N)=O)NC(=O)[C@@H](NC(=O)[C@H](C)NC(=O)[C@@H]1CSSC[C@H](NC(=O)[C@@H](N)CCCCNC(=O)COCCOCCNC(=O)CC[C@H](NC(=O)CCCCCCCCCCCCCCCCCCC(=O)O)C(=O)O)C(=O)N[C@@H](CC(N)=O)C(=O)N[C@@H]([C@@H](C)O)C(=O)N[C@@H](C)C(=O)N[C@@H]([C@@H](C)O)C(=O)N1)[C@@H](C)O)C(=O)N1CCC[C@H]1C(=O)N[C@@H](CO)C(=O)N[C@@H](CO)C(=O)N[C@H](C(=O)N[C@@H](CC(N)=O)C(=O)N[C@H](C(=O)NCC(=O)N[C@@H](CO)C(=O)N[C@@H](CC(N)=O)C(=O)N[C@H](C(=O)N[C@@H](Cc1ccc(O)cc1)C(N)=O)[C@@H](C)O)C(C)C)[C@@H](C)O, Derivative of human amylin; also called compound 41) |
| 62.5 | 12.3 | 2.19 | 28.5 | {C20 diacid-γGlu}-KCNTATCATQRLAEFLRHSSPNFGAIPSSTNVGSETY-NH2 (disulfide 2-7; SMILES CC[C@H](C)[C@H](NC(=O)[C@H](C)NC(=O)CNC(=O)[C@H](Cc1ccccc1)NC(=O)[C@H](CC(N)=O)NC(=O)[C@@H]1CCCN1C(=O)[C@H](CO)NC(=O)[C@H](CO)NC(=O)[C@H](Cc1c[nH]cn1)NC(=O)[C@H](CCCNC(=N)N)NC(=O)[C@H](CC(C)C)NC(=O)[C@H](Cc1ccccc1)NC(=O)[C@H](CCC(=O)O)NC(=O)[C@H](C)NC(=O)[C@H](CC(C)C)NC(=O)[C@H](CCCNC(=N)N)NC(=O)[C@H](CCC(N)=O)NC(=O)[C@@H](NC(=O)[C@H](C)NC(=O)[C@@H]1CSSC[C@H](NC(=O)[C@H](CCCCN)NC(=O)CC[C@H](NC(=O)CCCCCCCCCCCCCCCCCCC(=O)O)C(=O)O)C(=O)N[C@@H](CC(N)=O)C(=O)N[C@@H]([C@@H](C)O)C(=O)N[C@@H](C)C(=O)N[C@@H]([C@@H](C)O)C(=O)N1)[C@@H](C)O)C(=O)N1CCC[C@H]1C(=O)N[C@@H](CO)C(=O)N[C@@H](CO)C(=O)N[C@H](C(=O)N[C@@H](CC(N)=O)C(=O)N[C@H](C(=O)NCC(=O)N[C@@H](CO)C(=O)N[C@@H](CCC(=O)O)C(=O)N[C@H](C(=O)N[C@@H](Cc1ccc(O)cc1)C(N)=O)[C@@H](C)O)C(C)C)[C@@H](C)O, Derivative of human amylin; also called compound 22) |
